The results in this text go back to PMC6868718, “Multiple transcription factors co-regulate the Mycobacterium tuberculosis adaptation response to vitamin C” (BMC Genomics, 2019).

Data set [1] concerns the target T1, Rv0348 (MosR) (Mycobacterium tuberculosis H37Rv) (UniProt O06299).
T1 sequence: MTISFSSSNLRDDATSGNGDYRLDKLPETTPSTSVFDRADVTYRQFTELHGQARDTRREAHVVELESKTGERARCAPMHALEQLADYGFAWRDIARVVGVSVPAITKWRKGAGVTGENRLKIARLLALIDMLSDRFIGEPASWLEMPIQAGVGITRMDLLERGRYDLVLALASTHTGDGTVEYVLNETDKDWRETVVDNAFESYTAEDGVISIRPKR
As to the kind of experiment: EMSA.

In data set [2] the target is T2, Phosphorylated DevR (DevR~P) (Mycobacterium tuberculosis, UniProt P9WMF9 1-217, phosphorylated using 50 mM acetyl phosphate (residue not stated)).
T2 construct: DevR, two-component response regulator of Mycobacterium tuberculosis (devR of the Rv3134c-devR-devS operon), phosphorylated in vitro with acetyl phosphate; also called His6-DevR phosphorylated
As to the kind of experiment: native gel or EMSA. As to conditions: both partners purified.

T2 sequence (P9WMF9 whole entry): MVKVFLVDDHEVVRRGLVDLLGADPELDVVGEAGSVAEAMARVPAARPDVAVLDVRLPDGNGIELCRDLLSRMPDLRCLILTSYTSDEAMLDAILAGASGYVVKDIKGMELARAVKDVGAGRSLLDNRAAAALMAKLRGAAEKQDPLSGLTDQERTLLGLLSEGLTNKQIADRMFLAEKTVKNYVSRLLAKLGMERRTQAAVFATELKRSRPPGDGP

Consider “TTACTGGCGGGGACCGCTATCTCCCAGGGGCGTTGGTCCCCACCTGAGGGCCGTTAGTCCTTATCGACCGATGACAGACGCAACCCGTCAGGGCGAGAATGAATCTCACCTATCGCACGGGTGGCTCGTCCAGGTCCACAACCATCGCCCAGCTTTTCACAGCAAAGTCCCAGAAATGGCTTACAGTTGCCGACAGCTGCCGAACCAGCGGCCGTC (double strand) [Rv3134c promoter fragment (devR operon promoter)]”, for which, in data set [1], the binding entry is on record as “no binding”.

B1: Rv0348-His6 (natural protein)
chain: MTISFSSSNLRDDATSGNGDYRLDKLPETTPSTSVFDRADVTYRQFTELHGQARDTRREAHVVELESKTGERARCAPMHALEQLADYGFAWRDIARVVGVSVPAITKWRKGAGVTGENRLKIARLLALIDMLSDRFIGEPASWLEMPIQAGVGITRMDLLERGRYDLVLALASTHTGDGTVEYVLNETDKDWRETVVDNAFESYTAEDGVISIRPKR
notes: also called mosR; not shown: His6, C-terminal, kept
As to B1, in data set [2], the binding result is reported as “binds”.
